± gives the standard deviation of the averaged measurements.

The nature of this series: total protein half-life in vivo (active degradation + dilution); higher = more stable protein.
Where [1] appears, read: E. coli NCM3722 delta-clpP delta-lon delta-hslV, growth: N-lim chemostat, doubling time 6 h.
Where [2] appears, read: E. coli NCM3722 delta-clpP, growth: N-lim chemostat, doubling time 6 h.
Setting [3] is: E. coli NCM3722 delta-lon, growth: N-lim chemostat, doubling time 6 h.
Where [4] appears, read: E. coli NCM3722 delta-smpB, growth: N-lim chemostat, doubling time 6 h.
The mark [5] stands for this setting: wild type E. coli NCM3722, growth: C-lim chemostat, doubling time 3 h.
The mark [6] stands for this setting: wild type E. coli NCM3722, growth: C-lim chemostat, doubling time 6 h.
[7] abbreviates: wild type E. coli NCM3722, growth: N-lim chemostat, doubling time 6 h.
[8] abbreviates: wild type E. coli NCM3722, growth: N-lim chemostat, doubling time 12 h.
[9] abbreviates: wild type E. coli NCM3722, growth: P-lim chemostat, doubling time 6 h.
The mark [10] stands for this setting: wild type E. coli NCM3722, growth: P-lim chemostat, doubling time 12 h.
Setting [11] is: E. coli NCM3722 delta-hslV, growth: N-lim chemostat, doubling time 6 h.
The mark [12] stands for this setting: wild type E. coli NCM3722, growth: C-lim chemostat, doubling time 12 h.

For the sequence “MGQLIDGVWHDTWYDTKSTGGKFQRSASAFRNWLTADGAPGPTGTGGFIAEKDRYHLYVSLACPWAHRTLIMRKLKGLEPFISVSVVNPLMLENGWTFDDSFPGATGDTLYQNEFLYQLYLHADPHYSGRVTVPVLWDKKNHTIVSNESAEIIRMFNTAFDALGAKAGDYYPPALQTKIDELNGWIYDTVNNGVYKAGFATSQEAYDEAVAKVFESLARLEQILGQHRYLTGNQLTEADIRLWTTLVRFDPVYVTHFKCDKHRISDYLNLYGFLRDIYQMPGIAETVNFDHIRNHYFRSHKTINPTGIISIGPWQDLDEPHGRDVRFG”, the “total protein half-life in vivo” value reads like this: under setting [1], 6.05 ± 0.31 h; under setting [2], 4.89 ± 0.16 h; under setting [3], 5.03 ± 0.45 h; under setting [4], 5.01 ± 0.34 h; under setting [5], 3.53 ± 0.54 h; under setting [6], 5.64 ± 0.061 h. The “total protein half-life in vivo” value is 5.04 ± 0.15 h under setting [7], 8.28 ± 0.38 h under setting [8], 5.99 ± 0.58 h under setting [9] and 12.3 ± 0.26 h under setting [10].

Regarding “MTTIVDSNLPVARPSWDHSRLESRIVHLGCGAFHRAHQALYTHHLLESTDSDWGICEVNLMPGNDRVLIENLKKQQLLYTVAEKGAESTELKIIGSMKEALHPEIDGCEGILNAMARPQTAIVSLTVTEKGYCADAASGQLDLNNPLIKHDLENPTAPKSAIGYIVEALRLRREKGLKAFTVMSCDNVRENGHVAKVAVLGLAQARDPQLAAWIEENVTFPCTMVDRIVPAATPETLQEIADQLGVYDPCAIACEPFRQWVIEDNFVNGRPDWDKVGAQFVADVVPFEMMKLRMLNGSHSFLAYLGYLGGYETIADTVTNPAYRKAAFALMMQEQAPTLSMPEGTDLNAYATLLIERFSNPSLRHRTWQIAMDGSQKLPQRLLDPVRLHLQNGGSWRHLALGVAGWMRYTQGVDEQGNAIDVVDPMLAEFQKINAQYQGADRVKALLGLSGIFADDLPQNADFVGAVTAAYQQLCERGARECVAAL”, the “total protein half-life in vivo” value was 4.94 ± 2.6 h under setting [1]; 3.08 ± 0.24 h under setting [2]; 3.228 ± 0.01 h under setting [11]; 3.47 ± 0.17 h under setting [3]; 2.96 ± 0.24 h under setting [4]; 2.91 ± 0.27 h under setting [5]. Besides, the “total protein half-life in vivo” value amounted to 4.32 ± 0.52 h under setting [6]; 7.28 ± 2.2 h under setting [12]; 3.33 ± 0.044 h under setting [7]; 6.19 ± 2.3 h under setting [8]; 5.28 ± 0.23 h under setting [9]; 9.27 ± 0.21 h under setting [10].

As for “MLILLGYLVVLGTVFGGYLMTGGSLGALYQPAELVIIAGAGIGSFIVGNNGKAIKGTLKALPLLFRRSKYTKAMYMDLLALLYRLMAKSRQMGMFSLERDIENPRESEIFASYPRILADSVMLDFIVDYLRLIISGHMNTFEIEALMDEEIETHESEAEVPANSLALVGDSLPAFGIVAAVMGVVHALGSADRPAAELGALIAHAMVGTFLGILLAYGFISPLATVLRQKSAETSKMMQCVKVTLLSNLNGYAPPIAVEFGRKTLYSSERPSFIELEEHVRAVKNPQQQTTTEEA”, the “total protein half-life in vivo” value reads like this: under setting [5], 1.32 ± 0.061 h; under setting [6], 1.57 h; under setting [12], 2.1 h.

Regarding “MSDMHSLLIAAILGVVEGLTEFLPVSSTGHMIIVGHLLGFEGDTAKTFEVVIQLGSILAVVVMFWRRLFGLIGIHFGRPLQHEGESKGRLTLIHILLGMIPAVVLGLLFHDTIKSLFNPINVMYALVVGGLLLIAAECLKPKEPRAPGLDDMTYRQAFMIGCFQCLALWPGFSRSGATISGGMLMGVSRYAASEFSFLLAVPMMMGATALDLYKSWGFLTSGDIPMFAVGFITAFVVALIAIKTFLQLIKRISFIPFAIYRFIVAAAVYVVFF”, the “total protein half-life in vivo” value runs as follows: under setting [2], greater than 8 h; under setting [3], 6.08 h; under setting [4], 5.89 h; under setting [5], greater than 4 h; under setting [12], 11.9 h; under setting [9], 6.83 ± 0.96 h.

Regarding “MAGESFILMGVSGSGKTLIGSKVAALLSAKFIDGDDLHPAKNIDKMSQGIPLSDEDRLPWLERLNDASYSLYKKNETGFIVCSSLKKQYRDILRKGSPHVHFLWLDGDYETILARMQRRAGHFMPVALLKSQFEALERPQADEQDIVRIDINHDIANVTEQCRQAVLAIRQNRICAKEGSASDQRCE”, the “total protein half-life in vivo” value is, setting by setting: under setting [1], 4.25 h; under setting [5], 2.82 ± 0.78 h; under setting [6], 2.8 ± 0.43 h; under setting [12], 3.67 h; under setting [7], 1.6 h.

With “MLMLFLTVAMVHIVALMSPGPDFFFVSQTAVSRSRKEAMMGVLGITCGVMVWAGIALLGLHLIIEKMAWLHTLIMVGGGLYLCWMGYQMLRGALKKEAVSAPAPQVELAKSGRSFLKGLLTNLANPKAIIYFGSVFSLFVGDNVGTTARWGIFALIIVETLAWFTVVASLFALPQMRRGYQRLAKWIDGFAGALFAGFGIHLIISR [P0AG38]”, the “total protein half-life in vivo” value is, setting by setting: under setting [2], 1.14 h; under setting [11], 0.979 h; under setting [3], 0.822 h; under setting [4], 1.13 ± 0.1 h; under setting [7], 1.13 h; under setting [10], 2.22 ± 0.65 h.

In the case of “MNALLSNPFKERLRKGEVQIGLWLSSTTAYMAEIAATSGYDWLLIDGEHAPNTIQDLYHQLQAVAPYASQPVIRPVEGSKPLIKQVLDIGAQTLLIPMVDTAEQARQVVSATRYPPYGERGVGASVARAARWGRIENYMAQVNDSLCLLVQVESKTALDNLDEILDVEGIDGVFIGPADLSASLGYPDNAGHPEVQRIIETSIRRIRAAGKAAGFLAVAPDMAQQCLAWGANFVAVGVDTMLYSDALDQRLAMFKSGKNGPRIKGSY”, the “total protein half-life in vivo” value under setting [2] came to 2.69 ± 0.27 h; the “total protein half-life in vivo” value under setting [4] is 2.17 h; the “total protein half-life in vivo” value under setting [5] amounted to 2.74 h; the “total protein half-life in vivo” value under setting [6] was 4.08 h; the “total protein half-life in vivo” value under setting [12] amounted to 6.62 ± 0.94 h; the “total protein half-life in vivo” value under setting [8] is 3.25 h.

Regarding “MNMKKLATLVSAVALSATVSANAMAKDTIALVVSTLNNPFFVSLKDGAQKEADKLGYNLVVLDSQNNPAKELANVQDLTVRGTKILLINPTDSDAVGNAVKMANQANIPVITLDRQATKGEVVSHIASDNVLGGKIAGDYIAKKAGEGAKVIELQGIAGTSAARERGEGFQQAVAAHKFNVLASQPADFDRIKGLNVMQNLLTAHPDVQAVFAQNDEMALGALRALQTAGKSDVMVVGFDGTPDGEKAVNDGKLAATIAQLPDQIGAKGVETADKVLKGEKVQAKYPVDLKLVVKQ”, the “total protein half-life in vivo” value by setting is: under setting [1], 3.56 ± 0.29 h; under setting [2], 5.92 ± 0.94 h; under setting [3], 6.39 ± 0.68 h; under setting [4], 6.26 ± 0.56 h; under setting [5], 3.27 ± 0.035 h; under setting [6], 6.14 ± 1.1 h. For the same sequence, the “total protein half-life in vivo” value by setting is: under setting [12], 9.24 ± 0.57 h; under setting [7], 6.13 ± 0.6 h; under setting [8], 10.9 ± 0.88 h; under setting [9], 6.05 ± 0.068 h; under setting [10], 11.5 ± 0.92 h.

Consider “MITYHDAFAKANHYLDDADLPVVITLHGRFSQGWYFCFEAREFLETGDEAARLAGNAPFIIDKDSGEIHSLGTAKPLEEYLQDYEIKKATFGLP”, for which, under setting [1], the “total protein half-life in vivo” value turned out to be 4.62 ± 0.3 h.

The record behind these values is the supplement of paper PMC11246515.
